Test results published in publication PMC9888711, “Pneumococcal capsule expression is controlled through a conserved, distal cis-regulatory element during infection” (PLOS Pathogens, 2023).
“And” between values parts separate entries of the source, which are not always exact repeats. Equal values may be shown once.

Experiments:
[1] = molecular target: SpxR (SPD_0969), full-length recombinant (Streptococcus pneumoniae D39); test: SEC-MALS; Superdex 200 Increase 10/300 GL, 50 mM Tris-Cl pH 7.0, 500 mM NaCl, 1 mM TCEP, 70 uM, 25 C; no DNA
[2] = molecular target: SpxR (SPD_0969), full-length recombinant (Streptococcus pneumoniae D39); test: negative stain electron microscopy; SpxR with 37-CE DNA in high salt (50 mM Tris pH 7.0, 500 mM NaCl, 1 mM TCEP); 3D reconstruction, C2 symmetry, 20.9 A
[3] = molecular target: SpxR (SPD_0969), full-length recombinant (Streptococcus pneumoniae D39); test: negative stain electron microscopy; SpxR with 37-CE DNA in low salt (final 50 mM NaCl, HEPES pH 7.5, 5 mM MgCl2, 1 mM CaCl2); 3D reconstruction, C3 symmetry, 21.5 A
[4] = molecular target: SpxR (SPD_0969), full-length recombinant (Streptococcus pneumoniae D39); test: SEC; Superose 6 Increase 10/300 GL, 50 mM Tris-Cl pH 7.0, 500 mM NaCl, 1 mM TCEP; 300 uL at 70 uM; calibrated with molecular weight standards
[5] = molecular target: T1, SpxRDBD (Streptococcus pneumoniae D39, UniProt A0A0H2ZR90 1-63); test: EMSA; EMSA: 20 mM HEPES pH 7.2, 50 mM NaCl, 5 mM MgCl2, 1 mM CaCl2, 0.1 mM EDTA, 12% glycerol, 10 mM DTT, 0.5 uM DNA, 400 ng poly(dI-dC); FP: same salts, 2% glycerol, 10 nM DNA (high salt 500 mM NaCl; Fig 5 legend says Tris pH 7.0); temperature not stated; conditions: protein: recombinant; tags: His6-SUMO removed by Ulp1; label: 6-FAM forward; blunt
[6] = molecular target: T2, CpsR (Streptococcus pneumoniae D39, UniProt A0A0H2ZMA3 1-247); test: as above; conditions: protein: recombinant; tags: His6-SUMO removed by Ulp1; chain copies: 2; label: 6-FAM forward; blunt
[7] = molecular target: T3, SpxR (Streptococcus pneumoniae D39, UniProt A0A0H2ZR90 1-425); test: fluorescence polarization; 50 mM NaCl; EMSA: 20 mM HEPES pH 7.2, 50 mM NaCl, 5 mM MgCl2, 1 mM CaCl2, 0.1 mM EDTA, 12% glycerol, 10 mM DTT, 0.5 uM DNA, 400 ng poly(dI-dC); FP: same salts, 2% glycerol, 10 nM DNA (high salt 500 mM NaCl; Fig 5 legend says Tris pH 7.0); temperature not stated; conditions: protein: recombinant; tags: His6-SUMO removed by Ulp1; chain copies: 3; label: 6-FAM forward; blunt
[8] = molecular target: T1, SpxRDBD; test: EMSA; second to 5'+10; EMSA: 20 mM HEPES pH 7.2, 50 mM NaCl, 5 mM MgCl2, 1 mM CaCl2, 0.1 mM EDTA, 12% glycerol, 10 mM DTT, 0.5 uM DNA, 400 ng poly(dI-dC); FP: same salts, 2% glycerol, 10 nM DNA (high salt 500 mM NaCl; Fig 5 legend says Tris pH 7.0); temperature not stated; conditions: protein: recombinant; tags: His6-SUMO removed by Ulp1; label: 6-FAM forward; blunt
[9] = molecular target: T3, SpxR; test: EMSA; shift begins at 312 nM protein; competed by unlabeled 37-CE; EMSA: 20 mM HEPES pH 7.2, 50 mM NaCl, 5 mM MgCl2, 1 mM CaCl2, 0.1 mM EDTA, 12% glycerol, 10 mM DTT, 0.5 uM DNA, 400 ng poly(dI-dC); FP: same salts, 2% glycerol, 10 nM DNA (high salt 500 mM NaCl; Fig 5 legend says Tris pH 7.0); temperature not stated; conditions: protein: recombinant; tags: His6-SUMO removed by Ulp1; chain copies: 3; label: 6-FAM on forward strand 5' (EMSA, FP); blunt
[10] = molecular target: T2, CpsR; test: EMSA; shift begins at 625 nM protein; competed by unlabeled 37-CE; EMSA: 20 mM HEPES pH 7.2, 50 mM NaCl, 5 mM MgCl2, 1 mM CaCl2, 0.1 mM EDTA, 12% glycerol, 10 mM DTT, 0.5 uM DNA, 400 ng poly(dI-dC); FP: same salts, 2% glycerol, 10 nM DNA (high salt 500 mM NaCl; Fig 5 legend says Tris pH 7.0); temperature not stated; conditions: protein: recombinant; tags: His6-SUMO removed by Ulp1; chain copies: 2; label: 6-FAM on forward strand 5' (EMSA, FP); blunt
[11] = molecular target: the molecule itself; test: SEC; Superose 6 Increase 10/300 GL, 50 mM Tris-Cl pH 7.0, 500 mM NaCl, 1 mM TCEP; 300 uL at 70 uM; calibrated with molecular weight standards
[12] = molecular target: T1, SpxRDBD; test: EMSA; strongest of the extended truncations; EMSA: 20 mM HEPES pH 7.2, 50 mM NaCl, 5 mM MgCl2, 1 mM CaCl2, 0.1 mM EDTA, 12% glycerol, 10 mM DTT, 0.5 uM DNA, 400 ng poly(dI-dC); FP: same salts, 2% glycerol, 10 nM DNA (high salt 500 mM NaCl; Fig 5 legend says Tris pH 7.0); temperature not stated; conditions: protein: recombinant; tags: His6-SUMO removed by Ulp1; label: 6-FAM forward; blunt

“SpxR (SPD_0969), full-length recombinant (natural protein)” was tested. Which stoichiometry N [1] did it give?
Its stoichiometry N is 4 and 8.

What about the stoichiometry N [2] of the same molecule?
Its stoichiometry N is 4.

And the stoichiometry N [3]?
Its stoichiometry N is 3.

And the stoichiometry N [4]?
The stoichiometry N was 4.

B1: 37-CE 5' (10 bp) (dsDNA)
DNA 1: TGTGTACTAT
DNA 2: ATAGTACACA
Does B1 bind [5]?
Result: no binding

Does B1 bind [6]?
Result: no binding

B2: 21-CE Neither (dsDNA)
DNA 1: GTGTGAGAGAGTAGTTTGAAA
DNA 2: TTTCAAACTACTCTCTCACAC
Does B2 bind [5]?
Result: no binding

Does B2 bind [6]?
Result: no binding

B3: 21-CE SpxR-only (dsDNA)
DNA 1: GTGTACTAGAGTAGTTTGAAA
DNA 2: TTTCAAACTACTCTAGTACAC
Which results are given for B3?
Kd [7]: 56 nM; binding result [6]: no binding

B4: 37-CE 3'+10 (dsDNA)
DNA 1: TGAAACTAGAATAGTACACA
DNA 2: TGTGTACTATTCTAGTTTCA
Does B4 bind [8]?
Result: binds

Does B4 bind [6]?
Result: no binding

B5: 37-CE (dsDNA)
DNA 1: TGTGTACTATATTATATTGAAACTAGAATAGTACACA
DNA 2: TGTGTACTATTCTAGTTTCAATATAATATAGTACACA
Does B5 bind [9]?
Result: binds

Does B5 bind [10]?
Result: binds

B6: 21-CE CpsR-only (dsDNA)
DNA 1: GTGTGAGATATTATATTGAAA
DNA 2: TTTCAATATAATATCTCACAC
How did the Kd [7] turn out when B6 was run?
Its Kd is 104 nM.

Does B6 bind [5]?
Result: no binding

B7: 21-CE (dsDNA)
DNA 1: GTGTACTATATTATATTGAAA
DNA 2: TTTCAATATAATATAGTACAC
For B7, which Kd [7] is on record?
Its Kd is 71 nM.

B8: CpsR (SPD_0064), recombinant (natural protein)
chain: MEKENRGKNMAIPKYQYIKDELKNKIISGQFSSGDKFYTEAELISMYDVSSITVVRALNDLAKDGYIVRQQGKGTFVSRARKHKLVEFSDIELFNAKDDKVTVLSIERGNKLVYLEKLGLRGDQFYYKIERIRESNGVVYIYHTSYIPEQYINANYPNLEYYSSIYNRFKLDYHIHMNDEHFEEINEIVFPTPEHAASVLGVDEQFPTVLQTKITKLESTGQVLEYSETYKRSDYYKIKFISCDRDH
notes: CpsR (also called AgaR), transcription factor of Streptococcus pneumoniae D39, locus SPD_0064; 65.72 kDa as a dimer; cpsR amplified from D39 genomic DNA into pE-SUMO; also called AgaR; source: E. coli T7 Express lysY/Iq, purified (Ni-NTA, Ulp1 cleavage, SEC)
How did the “stoichiometry N” value [11] turn out when B8 was run?
Its value is 2.

B9: 37-CE spacer (17 bp) (dsDNA)
DNA 1: ATTATATTGAAACTAGA
DNA 2: TCTAGTTTCAATATAAT
Does B9 bind [5]?
Result: no binding

Does B9 bind [6]?
Result: no binding

B10: 37-CE 5'+10 (dsDNA)
DNA 1: TGTGTACTATATTATATTGA
DNA 2: TCAATATAATATAGTACACA
Does B10 bind [12]?
Result: binds

Does B10 bind [6]?
Result: binds
